Reference: article PMC5440646, “T Cell Costimulation by CD6 Is Dependent on Bivalent Binding of a GADS/SLP-76 Complex” (Molecular and Cellular Biology, 2017)

B1: human CD6 fused to EGFP [human] / T cell-specific adaptor protein (TSAd), endogenous [human (endogenous in Jurkat)] (parent)
chain 1: not shown
chain 2: HPSPAPPDQLNTSSAESELWEPGERLPVRLTNGSSSCSGTVEVRLEASWEPACGALWDSRAAEAVCRALGCGGAEAASQLAPPTPELPPPPAAGNTSVAANATLAGAPALLCSGAEWRLCEVVEHACRSDGRRARVTCAENRALRLVDGGGACAGRVEMLEHGEWGSVCDDTWDLEDAHVVCRQLGCGWAVQALPGLHFTPGRGPIHRDQVNCSGAEAYLWDCPGLPGQHYCGHKEDAGAVCSEHQSWRLTGGADRCEGQVEVHFRGVWNTVCDSEWYPSEAKVLCQSLGCGTAVERPKGLPHSLSGRMYYSCNGEELTLSNCSWRFNNSNLCSQSLAARVLCSASRSLHNLSTPEVPASVQTVTIESSVTVKIENKESRELMLLIPSIVLGILLLGSLIFIAFILLRIKGKYALPVMVNHQHLPTTIPAGSNSYQPVPITIPKEVFMLPIQVQAPPPEDSDSGSDSDYEHYDFSAQPPVALTTFYNSQRHRVTDEEVQQSRFQMPPLEEGLEELHASHIPTANPGHCITDPPSLGPQYHPRSNSESSTSSGEDYCNSPKSKLPPWNPQVFSSERSSFLEQPPNLELAGTQPAFSAGPPADDSSSTSSGEWYQNFQPPPQPPSEEQFGCPGSPSPQPDSTDNDDYDDISAA
B2: human CD6 fused to EGFP [human] / GRB2-related adaptor downstream of Shc (GADS), endogenous [human (endogenous in Jurkat)] (parent)
chain 1: MEAVAKFDFTASGEDELSFHTGDVLKILSNQEEWFKAELGSQEGYVPKNFIDIQFPKWFHEGLSRHQAENLLMGKEVGFFIIRASQSSPGDFSISVRHEDDVQHFKVMRDNKGNYFLWTEKFPSLNKLVDYYRTNSISRQKQIFLRDRTREDQGHRGNSLDRRSQGGPHLSGAVGEEIRPSMNRKLSDHPPTLPLQQHQHQPQPPQYAPAPQQLQQPPQQRYLQHHHFHQERRGGSLDINDGHCGTGLGSEMNAALMHRRHTDPVQLQAAGRVRWARALYDFEALEDDELGFHSGEVVEVLDSSNPSWWTGRLHNKLGLFPANYVAPMTR
chain 2: B1 chain 2
B3: human CD6 fused to EGFP [human] / SH2 domain-containing leukocyte molecule of 76 kDa (SLP-76), endogenous [human (endogenous in Jurkat)] (parent)
chain 1: MALRNVPFRSEVLGWDPDSLADYFKKLNYKDCEKAVKKYHIDGARFLNLTENDIQKFPKLRVPILSKLSQEINKNEERRSIFTRKPQVPRFPEETESHEEDNGGWSSFEEDDYESPNDDQDGEDDGDYESPNEEEEAPVEDDADYEPPPSNDEEALQNSILPAKPFPNSNSMYIDRPPSGKTPQQPPVPPQRPMAALPPPPAGRNHSPLPPPQTNHEEPSRSRNHKTAKLPAPSIDRSTKPPLDRSLAPFDREPFTLGKKPPFSDKPSIPAGRSLGEHLPKIQKPPLPPTTERHERSSPLPGKKPPVPKHGWGPDRRENDEDDVHQRPLPQPALLPMSSNTFPSRSTKPSPMNPLPSSHMPGAFSESNSSFPQSASLPPYFSQGPSNRPPIRAEGRNFPLPLPNKPRPPSPAEEENSLNEEWYVSYITRPEAEAALRKINQDGTFLVRDSSKKTTTNPYVLMVLYKDKVYNIQIRYQKESQVYLLGTGLRGKEDFLSVSDIIDYFRKMPLLLIDGKNRGSRYQCTLTHAAGYP
chain 2: B1 chain 2

Variants of: B1
Assay: co-immunoprecipitation (anti-CD6 IP), Western blot densitometry
Conditions: with T cell-specific adaptor protein (TSAd), Jurkat cells, 3 × 10^6 cells per sample, pervanadate treated, CD6 MAb (MEM-98), three experiments, read off a plot

Variant | response [AU]
chain 2 Y612F | 8.8
chain 2 Y612F Y645F | 4.4
chain 2 Y645F | 5.2

Variants of: B2
Assay: as above
Conditions: with GRB2-related adaptor downstream of Shc (GADS), Jurkat cells, 3 × 10^6 cells per sample, pervanadate treated, CD6 MAb (MEM-98), three experiments, read off a plot

Variant | response [AU]
chain 2 Y612F Y645F | 0.9
chain 2 Y612F | 10
chain 2 Y645F | 9.1

Variants of: B3
Assay: as above
Conditions: with SH2 domain-containing leukocyte molecule of 76 kDa (SLP-76), Jurkat cells, 3 × 10^6 cells per sample, pervanadate treated, CD6 MAb (MEM-98), three experiments, read off a plot

Variant | response [AU]
chain 2 Y645F | 1.5
chain 2 Y612F | 6.4
chain 2 Y612F Y645F | 0.5
